Experimental data as given in the array DNA melting data of Ke et al..

Test: melting temperature; melt of duplexes
Conditions: sodium 0.0675 M; strand 1 µM

Row | Substance | Tm [°C]
1 | CGACGTGCGGAATGTGCTG+CAGCACATCTTGCACGTCG ((((((((...((((((((+))))))))...)))))))) | 50.8
2 | CGACGTGCCCAATGTGCTG+CAGCACATGCCGCACGTCG ((((((((...((((((((+))))))))...)))))))) | 48.9
3 | CGACGTGCTCCATGTGCTG+CAGCACATAAAGCACGTCG (((((((((..((((((((+))))))))..))))))))) | 50.9
4 | CGACGTGCGTCATGTGCTG+CAGCACATTCAGCACGTCG ((((((((...((((((((+))))))))...)))))))) | 51.3
5 | CGACGTGCACAATGTGCTG+CAGCACATGTAGCACGTCG ((((((((...((((((((+))))))))...)))))))) | 50.7
6 | CGACGTGCCCTATGTGCTG+CAGCACATCGCGCACGTCG ((((((((.(.((((((((+)))))))).).)))))))) | 48.1
7 | CGACGTGCGATATGTGCTG+CAGCACATATAGCACGTCG ((((((((.((((((((((+)))))))))).)))))))) | 57.5
8 | CGACGTGCGGTATGTGCTG+CAGCACATTGTGCACGTCG ((((((((...((((((((+))))))))...)))))))) | 47.2
9 | CGACGTGCGGGATGTGCTG+CAGCACATGCCGCACGTCG ((((((((((.((((((((+)))))))).)))))))))) | 63.7
10 | CGACGTGCGGGATGTGCTG+CAGCACATTGTGCACGTCG ((((((((...((((((((+))))))))...)))))))) | 49.4
11 | CGACGTGCCGAATGTGCTG+CAGCACATCGTGCACGTCG ((((((((...((((((((+))))))))...)))))))) | 51.9
12 | CGACGTGCGCCATGTGCTG+CAGCACATACGGCACGTCG ((((((((...((((((((+))))))))...)))))))) | 46.6
13 | CGACGTGCGCGATGTGCTG+CAGCACATCCTGCACGTCG ((((((((..(((((((((+)))))))))..)))))))) | 54.4
14 | CGACGTGCCCGATGTGCTG+CAGCACATCTCGCACGTCG ((((((((..(((((((((+)))))))))..)))))))) | 51.6
15 | CGACGTGCCACATGTGCTG+CAGCACATAAAGCACGTCG ((((((((...((((((((+))))))))...)))))))) | 49.1
16 | CGACGTGCCCAATGTGCTG+CAGCACATGATGCACGTCG ((((((((...((((((((+))))))))...)))))))) | 49.7
17 | CGACGTGCATGATGTGCTG+CAGCACATAGTGCACGTCG (((((((((..((((((((+))))))))..))))))))) | 49.6
18 | CGACGTGCTAGATGTGCTG+CAGCACATTACGCACGTCG ((((((((...((((((((+))))))))...)))))))) | 50.1
19 | CGACGTGCGGGATGTGCTG+CAGCACATCGCGCACGTCG (((((((((.(((((((((+))))))))).))))))))) | 63.7
20 | CGACGTGCCAAATGTGCTG+CAGCACATGGGGCACGTCG (((((((((..((((((((+))))))))..))))))))) | 56.6
21 | CGACGTGCCGAATGTGCTG+CAGCACATGAGGCACGTCG (((((((((..((((((((+))))))))..))))))))) | 63.8
22 | CGACGTGCTTAATGTGCTG+CAGCACATCGTGCACGTCG ((((((((...((((((((+))))))))...)))))))) | 43.3
23 | CGACGTGCCGCATGTGCTG+CAGCACATTGGGCACGTCG (((((((((..((((((((+))))))))..))))))))) | 54.4
24 | CGACGTGCGTAATGTGCTG+CAGCACATCGGGCACGTCG ((((((((...((((((((+))))))))...)))))))) | 49.4

Row | Substance | Tm [°C]
25 | CGACGTGCGTGATGTGCTG+CAGCACATCTCGCACGTCG (((((((((.(((((((((+))))))))).))))))))) | 61.3
26 | CGACGTGCCCCATGTGCTG+CAGCACATCTTGCACGTCG ((((((((...((((((((+))))))))...)))))))) | 46.7
27 | CGACGTGCCCGATGTGCTG+CAGCACATGTTGCACGTCG ((((((((...((((((((+))))))))...)))))))) | 48.1
28 | CGACGTGCGAAATGTGCTG+CAGCACATCGTGCACGTCG ((((((((...((((((((+))))))))...)))))))) | 44.7
29 | CGACGTGCCGAATGTGCTG+CAGCACATTGGGCACGTCG (((((((((.(((((((((+))))))))).))))))))) | 59
30 | CGACGTGCCAGATGTGCTG+CAGCACATGTCGCACGTCG ((((((((.(.((((((((+)))))))).).)))))))) | 49.7
31 | CGACGTGCCAAATGTGCTG+CAGCACATGGTGCACGTCG ((((((((...((((((((+))))))))...)))))))) | 48.9
32 | CGACGTGCCCCATGTGCTG+CAGCACATGCCGCACGTCG ((((((((..(((((((((+)))))))))..)))))))) | 50.3
33 | CGACGTGCAAAATGTGCTG+CAGCACATTCAGCACGTCG ((((((((..(((((((((+)))))))))..)))))))) | 52.1
34 | CGACGTGCCACATGTGCTG+CAGCACATCGGGCACGTCG (((((((((..((((((((+))))))))..))))))))) | 53.9
35 | CGACGTGCCAGATGTGCTG+CAGCACATCAGGCACGTCG (((((((((.(((((((((+))))))))).))))))))) | 59.8
36 | CGACGTGCTTGATGTGCTG+CAGCACATTTAGCACGTCG (((((((((..((((((((+))))))))..))))))))) | 52.5
37 | CGACGTGCGTTATGTGCTG+CAGCACATTCTGCACGTCG ((((((((...((((((((+))))))))...)))))))) | 50
38 | CGACGTGCACTATGTGCTG+CAGCACATCCCGCACGTCG ((((((((...((((((((+))))))))...)))))))) | 42.6
39 | CGACGTGCACCATGTGCTG+CAGCACATGGGGCACGTCG ((((((((.((((((((((+)))))))))).)))))))) | 62.8
40 | CGACGTGCAGTATGTGCTG+CAGCACATCGTGCACGTCG (((((((((..((((((((+))))))))..))))))))) | 48.2
41 | CGACGTGCTCGATGTGCTG+CAGCACATACGGCACGTCG ((((((((...((((((((+))))))))...)))))))) | 50.5
42 | CGACGTGCCCGATGTGCTG+CAGCACATACTGCACGTCG ((((((((...((((((((+))))))))...)))))))) | 48.7
43 | CGACGTGCATTATGTGCTG+CAGCACATAGCGCACGTCG ((((((((..(((((((((+)))))))))..)))))))) | 49.4
44 | CGACGTGCTTAATGTGCTG+CAGCACATTTCGCACGTCG ((((((((..(((((((((+)))))))))..)))))))) | 51
45 | CGACGTGCGGGATGTGCTG+CAGCACATCTGGCACGTCG ((((((((..(((((((((+)))))))))..)))))))) | 57.1
46 | CGACGTGCGCTATGTGCTG+CAGCACATGTTGCACGTCG ((((((((...((((((((+))))))))...)))))))) | 49.6
47 | CGACGTGCAGTATGTGCTG+CAGCACATCCTGCACGTCG ((((((((((.((((((((+)))))))).)))))))))) | 56.3
48 | CGACGTGCCTGATGTGCTG+CAGCACATGAGGCACGTCG ((((((((((.((((((((+)))))))).)))))))))) | 58.5

Row | Substance | Tm [°C]
49 | CGACGTGCGTCATGTGCTG+CAGCACATACTGCACGTCG ((((((((...((((((((+))))))))...)))))))) | 50.9
50 | CGACGTGCTCTATGTGCTG+CAGCACATGCCGCACGTCG ((((((((...((((((((+))))))))...)))))))) | 48.2
51 | CGACGTGCCTGATGTGCTG+CAGCACATGGAGCACGTCG ((((((((...((((((((+))))))))...)))))))) | 51.6
52 | CGACGTGCTATATGTGCTG+CAGCACATCGCGCACGTCG ((((((((...((((((((+))))))))...)))))))) | 46.6
53 | CGACGTGCTCTATGTGCTG+CAGCACATACCGCACGTCG ((((((((..(((((((((+)))))))))..)))))))) | 48.5
54 | CGACGTGCTCAATGTGCTG+CAGCACATGAAGCACGTCG (((((((((..((((((((+))))))))..))))))))) | 53.6
55 | CGACGTGCGACATGTGCTG+CAGCACATAGAGCACGTCG ((((((((...((((((((+))))))))...)))))))) | 56.3
56 | CGACGTGCGTCATGTGCTG+CAGCACATAGCGCACGTCG (((((((((..((((((((+))))))))..))))))))) | 55.1
57 | CGACGTGCTCGATGTGCTG+CAGCACATAAAGCACGTCG (((((((((..((((((((+))))))))..))))))))) | 52.7
58 | CGACGTGCCCAATGTGCTG+CAGCACATAACGCACGTCG ((((((((...((((((((+))))))))...)))))))) | 47.3
59 | CGACGTGCTCAATGTGCTG+CAGCACATTTAGCACGTCG (((((((((.(((((((((+))))))))).))))))))) | 54.7
60 | CGACGTGCCAAATGTGCTG+CAGCACATGATGCACGTCG ((((((((...((((((((+))))))))...)))))))) | 50.3
61 | CGACGTGCTGGATGTGCTG+CAGCACATCTGGCACGTCG ((((((((..(((((((((+)))))))))..)))))))) | 58.3
62 | CGACGTGCGGCATGTGCTG+CAGCACATGCCGCACGTCG (((((((((((((((((((+))))))))))))))))))) | 68.9
63 | CGACGTGCTTCATGTGCTG+CAGCACATTGCGCACGTCG ((((((((...((((((((+))))))))...)))))))) | 46.5
64 | CGACGTGCTGCATGTGCTG+CAGCACATGCTGCACGTCG ((((((((.((((((((((+)))))))))).)))))))) | 61.2
65 | CGACGTGCTGGATGTGCTG+CAGCACATGTCGCACGTCG ((((((((...((((((((+))))))))...)))))))) | 50.3
66 | CGACGTGCCTGATGTGCTG+CAGCACATATCGCACGTCG ((((((((...((((((((+))))))))...)))))))) | 47.7
67 | CGACGTGCTCGATGTGCTG+CAGCACATTGAGCACGTCG ((((((((((.((((((((+)))))))).)))))))))) | 60.7
68 | CGACGTGCGACATGTGCTG+CAGCACATGTCGCACGTCG (((((((((((((((((((+))))))))))))))))))) | 67.2
69 | CGACGTGCTTGATGTGCTG+CAGCACATGTAGCACGTCG (((((((((..((((((((+))))))))..))))))))) | 51.7
70 | CGACGTGCTAAATGTGCTG+CAGCACATCGGGCACGTCG ((((((((...((((((((+))))))))...)))))))) | 49.7
71 | CGACGTGCTGAATGTGCTG+CAGCACATCCCGCACGTCG ((((((((.(.((((((((+)))))))).).)))))))) | 51
72 | CGACGTGCAGAATGTGCTG+CAGCACATGCGGCACGTCG ((((((((.(.((((((((+)))))))).).)))))))) | 54.4
